Results published in the supplement of paper PMC5998384.

Tests used:
[1] = system: HeLa Kyoto; experiment: solubility in G1/S (NP-40 vs SDS abundance) (log2 ratio); higher = more soluble; conditions: cell cycle stage: G1/S
[2] = system: HeLa Kyoto; experiment: melting temperature (median over replicates), in situ; higher = more thermally stable
[3] = system: HeLa Kyoto; experiment: solubility change mitosis vs G1/S (difference of NP-40 vs SDS log2 ratios) (log2 ratio difference); higher = more soluble in mitosis
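Throughout, for melting temperature (median over replicates), in situ: HeLa Kyoto cells synchronized by double thymidine or nocodazole block, proteins quantified by TMT10plex mass spectrometry, three independent biological replicates.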
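Throughout, for solubility change mitosis vs G1/S (difference of NP-40 vs SDS log2 ratios): synchronized HeLa Kyoto cells (double thymidine block for G1/S, nocodazole release for mitosis), protein amounts in NP-40 versus SDS lysates quantified by mass spectrometry, three biological replicates.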
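Throughout, for solubility in G1/S (NP-40 vs SDS abundance): HeLa Kyoto cells arrested at G1/S by double thymidine block, proteins quantified by TMT10plex mass spectrometry in mild NP-40 versus SDS extracts, three biological replicates.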

| Substance | solubility in G1/S (log2) [1] | melting temperature ([2]; cell cycle stage: G1/S) [°C] | melting temperature ([2]; cell cycle stage: mitosis) [°C] | solubility change mitosis (log2) [3] |
| --- | --- | --- | --- | --- |
| MSLKMDNRDVAGKANRWFGVAPPKSGKMNMNILHQEELIAQKKREIEAKMEQKAKQNQVASPQPPHPGEITNAHNSSCISNKFANDGSFLQQFLKLQKAQTSTDAPTSAPSAPPSTPTPSAGKRSLLISRRTGLGLASLPGPVKSYSHAKQLPVAHRPSVFQSPDEDEEEDYEQWLEIKVSPPEGAETRKVIEKLARFVAEGGPELEKVAMEDYKDNPAFAFLHDKNSREFLYYRKKVAEIRKEAQKSQAASQKVSPPEDEEVKNLAEKLARFIADGGPEVETIALQNNRENQAFSFLYEPNSQGYKYYRQKLEEFRKAKASSTGSFTAPDPGLKRKSPPEALSGSLPPATTCPASSTPAPTIIPAPAAPGKPASAATVKRKRKSRWGPEEDKVELPPAELVQRDVDASPSPLSVQDLKGLGYEKGKPVGLVGVTELSDAQKKQLKEQQEMQQMYDMIMQHKRAMQDMQLLWEKAVQQHQHGYDSDEEVDSELGTWEHQLRRMEMDKTREWAEQLTKMGRGKHFIGDFLPPDELEKFMETFKALKEGREPDYSEYKEFKLTVENIGYQMLMKMGWKEGEGLGSEGQGIKNPVNKGTTTVDGAGFGIDRPAELSKEDDEYEAFRKRMMLAYRFRPNPLNNPRRPYY [SUGP1] | 0.221 | 47.3 | 50.8 | 0.255 |
| MSVQSSSGSLEGPPSWSQLSTSPTPGSAAAARSLLNHTPPSGRPREGAMDELHSLDPRRQELLEARFTGVASGSTGSTGSCSVGAKASTNNESSNHSFGSLGSLSDKESETPEKKQSESSRGRKRKAENQNESSQGKSIGGRGHKISDYFEYQGGNGSSPVRGIPPAIRSPQNSHSHSTPSSSVRPNSPSPTALAFGDHPIVQPKQLSFKIIQTDLTMLKLAALESNKIQDLEKKEGRIDDLLRANCDLRRQIDEQQKLLEKYKERLNKCISMSKKLLIEKSTQEKLSSREKSMQDRLRLGHFTTVRHGASFTEQWTDGFAFQNLVKQQEWVNQQREDIERQRKLLAKRKPPTANNSQAPSTNSEPKQRKNKAVNGAENDPFVRPNLPQLLTLAEYHEQEEIFKLRLGHLKKEEAEIQAELERLERVRNLHIRELKRINNEDNSQFKDHPTLNERYLLLHLLGRGGFSEVYKAFDLYEQRYAAVKIHQLNKSWRDEKKENYHKHACREYRIHKELDHPRIVKLYDYFSLDTDTFCTVLEYCEGNDLDFYLKQHKLMSEKEARSIVMQIVNALRYLNEIKPPIIHYDLKPGNILLVDGTACGEIKITDFGLSKIMDDDSYGVDGMDLTSQGAGTYWYLPPECFVVGKEPPKISNKVDVWSVGVIFFQCLYGRKPFGHNQSQQDILQENTILKATEVQFPVKPVVSSEAKAFIRRCLAYRKEDRFDVHQLANDPYLLPHMRRSNSSGNLHMAGLTASPTPPSSSIITY [TLK1] | 0.061 | 50.1 | 53.3 | -0.0453 |
| MGDDQEDDFPRRLSESMEDLSLDLGALQGSEYLQDLGLGAPSHSQPGETPDSRPTGEEPGRDSLFSSLAGSQDLSRRRSWERSRSCSESWRRLSLDASAVDEEPCLPRTLASLALNLPGGGLKTWTQGCLSGGGTPAESPGKECDSPKKRGRSRSVPVSFYEIRSPEISPGLEVPTPPVQGLEPPVLECMEKDHVEPDHVLIVQQVLQELRQYHGARQRACMSASPGGAHSNLTWFEFLSESEDGAGKNEKSDKSTSVKRRLSCLRSRVTRQKEKGKSPAHLKDKGQDARERRECVNGHQLLQGTFSGPSSCPLCGKPFLSSASLKEHPRGTLLSDGSPALSRNVGMTVSQKGGPQPTPSPAGPGTQLGPITGEMDEADSAFLKFKQTADDSLSLTSPNTESIFVEDPYTASLRSEIESDGHEFEAESWSLAVDAAYAKKQKREVVKRQDVLYELMQTEVHHVRTLKIMLKVYSRALQEELQFSSKAIGRLFPCADDLLETHSHFLARLKERRQESLEEGSDRNYVIQKIGDLLVQQFSGENGERMKEKYGVFCSGHNEAVSHYKLLLQQNKKFQNLIKKIGNFSIVRRLGVQECILLVTQRITKYPVLVERIIQNTEAGTEDYEDLTQALNLIKDIISQVDAKVSECEKGQRLREIAGKMDLKSSSKLKNGLTFRKEDMLQRQLHLEGMLCWKTTSGRLKDILAILLTDVLLLLQEKDQKYVFASVDSKPPVISLQKLIVREVANEEKAMFLISASLQGPEMYEIYTSSKEDRNAWMAHIQRAVESCPDEEEGPFSLPEEERKVVEARATRLRDFQERLSMKDQLIAQSLLEKQQIYLEMAEMGGLEDLPQPRGLFRGGDPSETLQGELILKSAMSEIEGIQSLICRQLGSANGQAEDGGSSTGPPRRAETFAGYDCTNSPTKNGSFKKKVSSTDPRPRDWRGPPNSPDLKLSDSDIPGSSEESPQVVEAPGTESDPRLPTVLESELVQRIQTLSQLLLNLQAVIAHQDSYVETQRAAIQEREKQFRLQSTRGNLLLEQERQRNFEKQREERAALEKLQSQLRHEQQRWERERQWQHQELERAGARLQEREGEARQLRERLEQERAELERQRQAYQHDLERLREAQRAVERERERLELLRRLKKQNTAPGALPPDTLAEAQPPSHPPSFNGEGLEGPRVSMLPSGVGPEYAERPEVARRDSAPTENRLAKSDVPIQLLSATNQFQRQAAVQQQIPTKLAASTKGGKDKGGKSRGSQRWESSASFDLKQQLLLNKLMGKDESTSRNRRSLSPILPGRHSPAPPPDPGFPAPSPPPADSPSEGFSLKAGGTALLPGPPAPSPLPATPLSAKEDASKEDVIFF [ARHGEF18] | 0.0647 | 51.9 | 51.1 | -0.0175 |
| MARGQQKIQSQQKNAKKQAGQKKKQGHDQKAAAKAALIYTCTVCRTQMPDPKTFKQHFESKHPKTPLPPELADVQA [ZNF706] | -0.28 | 57.5 | 54.1 | 0.171 |
| MKTRQNKDSMSMRSGRKKEAPGPREELRSRGRASPGGVSTSSSDGKAEKSRQTAKKARVEEASTPKVNKQGRSEEISESESEETNAPKKTKTEQELPRPQSPSDLDSLDGRSLNDDGSSDPRDIDQDNRSTSPSIYSPGSVENDSDSSSGLSQGPARPYHPPPLFPPSPQPPDSTPRQPEASFEPHPSVTPTGYHAPMEPPTSRMFQAPPGAPPPHPQLYPGGTGGVLSGPPMGPKGGGAASSVGGPNGGKQHPPPTTPISVSSSGASGAPPTKPPTTPVGGGNLPSAPPPANFPHVTPNLPPPPALRPLNNASASPPGLGAQPLPGHLPSPHAMGQGMGGLPPGPEKGPTLAPSPHSLPPASSSAPAPPMRFPYSSSSSSSAAASSSSSSSSSSASPFPASQALPSYPHSFPPPTSLSVSNQPPKYTQPSLPSQAVWSQGPPPPPPYGRLLANSNAHPGPFPPSTGAQSTAHPPVSTHHHHHQQQQQQQQQQQQQQQQQQQHHGNSGPPPPGAFPHPLEGGSSHHAHPYAMSPSLGSLRPYPPGPAHLPPPHSQVSYSQAGPNGPPVSSSSNSSSSTSQGSYPCSHPSPSQGPQGAPYPFPPVPTVTTSSATLSTVIATVASSPAGYKTASPPGPPPYGKRAPSPGAYKTATPPGYKPGSPPSFRTGTPPGYRGTSPPAGPGTFKPGSPTVGPGPLPPAGPSGLPSLPPPPAAPASGPPLSATQIKQEPAEEYETPESPVPPARSPSPPPKVVDVPSHASQSARFNKHLDRGFNSCARSDLYFVPLEGSKLAKKRADLVEKVRREAEQRAREEKEREREREREKEREREKERELERSVKLAQEGRAPVECPSLGPVPHRPPFEPGSAVATVPPYLGPDTPALRTLSEYARPHVMSPGNRNHPFYVPLGAVDPGLLGYNVPALYSSDPAAREREREARERDLRDRLKPGFEVKPSELEPLHGVPGPGLDPFPRHGGLALQPGPPGLHPFPFHPSLGPLERERLALAAGPALRPDMSYAERLAAERQHAERVAALGNDPLARLQMLNVTPHHHQHSHIHSHLHLHQQDAIHAASASVHPLIDPLASGSHLTRIPYPAGTLPNPLLPHPLHENEVLRHQLFAAPYRDLPASLSAPMSAAHQLQAMHAQSAELQRLALEQQQWLHAHHPLHSVPLPAQEDYYSHLKKESDKPL [ATN1] | 0.377 | 53.9 | 57 | 0.405 |
| MAQVLHVPAPFPGTPGPASPPAFPAKDPDPPYSVETPYGYRLDLDFLKYVDDIEKGHTLRRVAVQRRPRLSSLPRGPGSWWTSTESLCSNASGDSRHSAYSYCGRGFYPQYGALETRGGFNPRVERTLLDARRRLEDQAATPTGLGSLTPSAAGSTASLVGVGLPPPTPRSSGLSTPVPPSAGHLAHVREQMAGALRKLRQLEEQVKLIPVLQVKLSVLQEEKRQLTVQLKSQKFLGHPTAGRGRSELCLDLPDPPEDPVALETRSVGTWVRERDLGMPDGEAALAAKVAVLETQLKKALQELQAAQARQADPQPQAWPPPDSPVRVDTVRVVEGPREVEVVASTAAGAPAQRAQSLEPYGTGLRALAMPGRPESPPVFRSQEVVETMCPVPAAATSNVHMVKKISITERSCDGAAGLPEVPAESSSSPPGSEVASLTQPEKSTGRVPTQEPTHREPTRQAASQESEEAGGTGGPPAGVRSIMKRKEEVADPTAHRRSLQFVGVNGGYESSSEDSSTAENISDNDSTENEAPEPRERVPSVAEAPQLRPAGTAAAKTSRQECQLSRESQHIPTAEGASGSNTEEEIRMELSPDLISACLALEKYLDNPNALTERELKVAYTTVLQEWLRLACRSDAHPELVRRHLVTFRAMSARLLDYVVNIADSNGNTALHYSVSHANFPVVQQLLDSGVCKVDKQNRAGYSPIMLTALATLKTQDDIETVLQLFRLGNINAKASQAGQTALMLAVSHGRVDVVKALLACEADVNVQDDDGSTALMCACEHGHKEIAGLLLAVPSCDISLTDRDGSTALMVALDAGQSEIASMLYSRMNIKCSFAPMSDDESPTSSSAEE [KANK2] | -0.0486 | 46.7 | – | -0.0916 |
| MSDLEDDETPQLSAHALAALQEFYAEQKQQIEPGEDDKYNIGIIEENWQLSQFWYSQETALQLAQEAIAAVGEGGRIACVSAPSVYQKLRELCRENFSIYIFEYDKRFAMYGEEFIFYDYNNPLDLPERIAAHSFDIVIADPPYLSEECLRKTSETVKYLTRGKILLCTGAIMEEQAAELLGVKMCTFVPRHTRNLANEFRCYVNYDSGLDCGI [N6AMT2] | -0.331 | – | 50.6 | 0.0973 |
| MTLIEGVGDEVTVLFSVLACLLVLALAWVSTHTAEGGDPLPQPSGTPTPSQPSAAMAATDSMRGEAPGAETPSLRHRGQAAQPEPSTGFTATPPAPDSPQEPLVLRLKFLNDSEQVARAWPHDTIGSLKRTQFPGREQQVRLIYQGQLLGDDTQTLGSLHLPPNCVLHCHVSTRVGPPNPPCPPGSEPGPSGLEIGSLLLPLLLLLLLLLWYCQIQYRPFFPLTATLGLAGFTLLLSLLAFAMYRP [TMUB1] | 0.566 | 51.6 | 52.5 | 0.143 |
| MTTSSIRRQMKNIVNNYSEAEIKVREATSNDPWGPSSSLMTEIADLTYNVVAFSEIMSMVWKRLNDHGKNWRHVYKALTLLDYLIKTGSERVAQQCRENIFAIQTLKDFQYIDRDGKDQGINVREKSKQLVALLKDEERLKAERAQALKTKERMAQVATGMGSNQITFGRGSSQPNLSTSHSEQEYGKAGGSPASYHGSPEASLCPQHRTGAPLGQSEELQPLSQRHPFLPHLGLASRPNGDWSQPCLTCDRAARATSPRVSSELEQARPQTSGEEELQLQLALAMSREVAEQEERLRRGDDLRLQMALEESRRDTVKIPKKKEHGSLPQQTTLLDLMDALPSSGPAAQKAEPWGPSASTNQTNPWGGPAAPASTSDPWPSFGTKPAASIDPWGVPTGATVQSVPKNSDPWAASQQPASSAGKRASDAWGAVSTTKPVSVSGSFELFSNLNGTIKDDFSEFDNLRTSKKTAESVTSLPSQNNGTTSPDPFESQPLTVASSKPSSARKTPESFLGPNAALVNLDSLVTRPAPPAQSLNPFLAPGAPATSAPVNPFQVNQPQPLTLNQLRGSPVLGTSTSFGPGPGVESMAVASMTSAAPQPALGATGSSLTPLGPAMMNMVGSVGIPPSAAQATGTTNPFLL [EPN2] | 0.656 | 54.9 | 54.6 | -0.0178 |
| TATDN3 | 0.608 | 56.5 | 56.3 | -0.0652 |
